Experimental findings from paper PMC12085566 are described below.

In this assay the target is BG505 SOSIP.664 Env trimer (HIV-1 (isolate BG505)). Put plainly: cryo-EM structure.

In the case of 4-domain CD4 (receptor), the stoichiometry N (molecules per Env) was 3.
